Data: patent US20100143365A1

Tests used:
[1] = target: lysozyme Gallus gallus fibrils (Gallus gallus) (UniProt P00698); test: ELISA, lysozyme fibrils
[2] = target: human fibrillar Aβ42 (human) (UniProt P05067); test: ELISA, Aβ fibrils
Chain of UniProt P05067 (P05067 672-713 limits assumed): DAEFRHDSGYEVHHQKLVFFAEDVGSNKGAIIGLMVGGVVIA

Chain of UniProt P00698 (P00698 other isoform, or with tags, fused parts or gaps limits assumed): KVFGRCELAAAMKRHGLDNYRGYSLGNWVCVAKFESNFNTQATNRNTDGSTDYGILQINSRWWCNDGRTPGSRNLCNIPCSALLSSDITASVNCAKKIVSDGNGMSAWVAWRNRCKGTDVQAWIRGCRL

- OD Values [1]: 0.095 OD
- OD Values [2]: 0.011 OD
B1: scFv21 (anti-amyloid scFv designated Pan 21′) (scFv)
scFv: DKLMAEVQLLESGGGLVQPGGSLRLSCAASGFTFSSYAMSWVRQAPGKGLEWVSSIQKSGEKTHYADSVKGRFTISRDNSKNTLYLQMNSLRAEDTAVYYCAKKRTLFDYWGQGTLVTVSSGGGGSGGGGSGGGGSTDIQMTQSPSSLSASVGDRVTITCRASQSISSYLNWYQQKPGKAPKLLIYRASYLQSGVPSRFSGSGSGTDFTLTISSLQPEDFATYYCQQSYSLPTTFGQGTKVEIKRAAAHHHHHHGAAEQKLISEEDLN
